In publication PMC10617769, “Dietary potassium stimulates Ppp1Ca-Ppp1r1a dephosphorylation of kidney NaCl cotransporter and reduces blood pressure” (The Journal of Clinical Investigation, 2023):

Target: T1, recombinant α catalytic subunit of rabbit protein phosphatase 1 (Ppp1ca) (rabbit, UniProt P62139 1-330)
T1 construct: α catalytic subunit of protein phosphatase 1 (Ppp1ca), rabbit, recombinant; also called PP1A; Protein Phosphatase 1 Catalytic Subunit, α-isoform; source: bought: MilliporeSigma, P7937 (recombinant)
T1 sequence (P62139 whole entry, canonical isoform): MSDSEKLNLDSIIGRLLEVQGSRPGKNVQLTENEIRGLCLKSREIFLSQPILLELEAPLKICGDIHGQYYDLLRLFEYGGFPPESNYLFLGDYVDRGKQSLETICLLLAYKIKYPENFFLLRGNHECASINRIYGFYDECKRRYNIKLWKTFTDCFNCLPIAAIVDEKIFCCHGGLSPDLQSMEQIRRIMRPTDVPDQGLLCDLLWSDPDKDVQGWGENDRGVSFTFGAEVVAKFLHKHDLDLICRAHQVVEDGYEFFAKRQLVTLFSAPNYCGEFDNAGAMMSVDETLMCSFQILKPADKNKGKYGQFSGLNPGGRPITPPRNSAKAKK
Experiment: pull-down; GST-(N) NCC or GST alone on glutathione-agarose beads with 2–10 μg recombinant phosphatase; 12- to 18-hour incubation in PBS with 0.5 mM TCEP at 4°C; bound protein detected by Western blotting
Settings: both partners purified

binding result: binds
B1: GST fusion protein of the cytoplasmic amino terminus of rat NCC (amino acids 1-133) (domain or fragment, UniProt P55018 1-133, looked up)
chain: MAELPVTEMPGDALCSGRFTISTLLGGDEPPPAACDNSQPSHLTHGSTLYLRTFGYNTIDVVPAYEHYANSALPGEPRKVRPTLADLHSFLKQEGSHLHALAFDGRPGHELTDGLVEDETGANSEKSPGEPVR
notes: thiazide-sensitive sodium chloride cotransporter NCC (SLC12A3), rat, NP_062218, cytoplasmic amino terminus, amino acids 1-133; cloned into pGEX4T1; also called GST-NCC-(N); GST-(N) NCC; source: E. coli C43 (DE3), recovered by glutathione chromatography, kept on beads
